The data set addresses GST-SBP-SLBP (stem-loop binding protein) (Homo sapiens, UniProt Q14493 1-270). The data set can be described thus: targeted RNA Bind-n-Seq; RBNS binding buffer: 25 mM Tris pH 7.5, 150 mM KCl, 3 mM MgCl2, 0.1% Tween, 0.5 mg/mL BSA, 1 mM DTT; 27 nM protein, 750 pM RNA pool; temperature not stated; high values mean tight binding. The following applies: protein: recombinant; tags: N-terminal GST and SBP (pGEX6P1-SBP). The method, boiled down: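 The protein, carrying a GST-SBP tag, was produced in Rosetta(DE3) pLysS E. coli, purified on glutathione, and mixed at 27 nM with 750 pM of a designed RNA oligo pool made by T7 transcription in RBNS binding buffer. RNA that bound was reverse transcribed using a barcoded primer of 10 nucleotides, amplified by PCR and sequenced on a MiSeq with 200-cycle paired-end reads. FLASH joined the reads, HISAT2 aligned them, and they were collapsed by barcode before the binding signal was taken as the DEseq binary-logarithm fold change of read counts for each sequence.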

Residue numbers refer to the chain shown, from its start.

In article PMC5892938, “SARNAclust: Semi-automatic detection of RNA protein binding motifs from immunoprecipitation data” one finds binding signal data, which are given here for 54 molecules.

B1: consensus (structured_RNA)
RNA: GGUCACGUCUCAAUCAACUCCCAAAGGCCCUUUUCAGGGCCACCCAUCAACAGCUCGCAGUCAAG
In the case of B1, the binding signal was 3.92 ± 0.166 log2 fold change.

B2: consensus (structured_RNA)
RNA: B1 RNA with C28U, C30U, C35A
In the case of B2, the binding signal came out at 1.43 ± 0.177 log2 fold change.

B3: consensus (structured_RNA)
RNA: B1 RNA with C28U, C30U, U33C, C35A
With B3, the binding signal was 1.09 ± 0.185 log2 fold change.

B4: consensus (structured_RNA)
RNA: B1 RNA with C29U, C30U, C35A, G38A
On to B4, for which the binding signal was 1.64 ± 0.15 log2 fold change.

B5: consensus (structured_RNA)
RNA: B1 RNA with C30U, C35U
For B5, the binding signal was 1.9 ± 0.154 log2 fold change.

B6: consensus (structured_RNA)
RNA: B1 RNA with C28U, C29U, C30U, U33C, G37A, G38A
As to B6, the binding signal turned out to be 2.22 ± 0.14 log2 fold change.

B7: consensus (structured_RNA)
RNA: B1 RNA with C29U, C30U, U33C, C35A
On to B7, for which the binding signal was found to be 1.52 ± 0.156 log2 fold change.

B8: consensus (structured_RNA)
RNA: B1 RNA with C28U, C29U, C30U, C35U, G37A, G38A
Turning to B8, the binding signal came out at 2.23 ± 0.157 log2 fold change.

B9: consensus (structured_RNA)
RNA: B1 RNA with C28U, C30U, U33C, C35G, G37A
For B9, the binding signal was 2.15 ± 0.13 log2 fold change.

B10: consensus (structured_RNA)
RNA: B1 RNA with C29U, C30U, G38A
With B10, the binding signal was determined as 1.75 ± 0.155 log2 fold change.

B11: consensus (structured_RNA)
RNA: B1 RNA with C28U, C35A, G39A
As to B11, the binding signal was found to be 3.61 ± 0.128 log2 fold change.

B12: consensus (structured_RNA)
RNA: B1 RNA with C29U, U33C, C35G
With B12, the binding signal turned out to be 2.28 ± 0.154 log2 fold change.

B13: consensus (structured_RNA)
RNA: B1 RNA with C35A
As to B13, the binding signal is 3.52 ± 0.16 log2 fold change.

B14: consensus (structured_RNA)
RNA: B1 RNA with C29U, C30U, U33C, C35G, G37A
For B14, the binding signal turned out to be 2 ± 0.133 log2 fold change.

B15: consensus (structured_RNA)
RNA: B1 RNA with C28U, C29U, C30U, U33C, C35G, G37A, G38A, G39A
For the molecule B15, the binding signal worked out at 2.15 ± 0.131 log2 fold change.

B16: consensus (structured_RNA)
RNA: B1 RNA with C28U, C30U, U33C, C35A, G39A
Consider B16, for which the binding signal came to 1.6 ± 0.134 log2 fold change.

B17: consensus (structured_RNA)
RNA: B1 RNA with C29U, C30U, C35U, G38A
Regarding B17, the binding signal was 0.854 ± 0.146 log2 fold change.

B18: consensus (structured_RNA)
RNA: B1 RNA with C28U, C29U, U33C, C35U, G39A
For B18, the binding signal was 2.26 ± 0.144 log2 fold change.

B19: consensus (structured_RNA)
RNA: B1 RNA with C29U, C30U, U33C
Regarding B19, the binding signal worked out at 1.31 ± 0.138 log2 fold change.

B20: consensus (structured_RNA)
RNA: B1 RNA with C29U, C30U, U33C, C35U
B20: the binding signal is 0.933 ± 0.168 log2 fold change.

B21: consensus (structured_RNA)
RNA: B1 RNA with C29U, C30U, C35U
Consider B21, for which the binding signal came to 1.3 ± 0.179 log2 fold change.

B22: consensus (structured_RNA)
RNA: B1 RNA with C29U, C30U, U33C, G38A
Consider B22, for which the binding signal worked out at 0.979 ± 0.14 log2 fold change.

B23: consensus (structured_RNA)
RNA: B1 RNA with C30U
Take B23: the binding signal stood at 2.4 ± 0.137 log2 fold change.

B24: consensus (structured_RNA)
RNA: B1 RNA with C28U, C30U, G39A
Consider B24, for which the binding signal came to 1.9 ± 0.145 log2 fold change.

B25: consensus (structured_RNA)
RNA: B1 RNA with C28U, C29U, C30U, G38A
B25: the binding signal is 0.623 ± 0.163 log2 fold change.

B26: consensus (structured_RNA)
RNA: B1 RNA with C28U, C29U, C30U, C35G, G37A, G38A, G39A
Take B26: the binding signal worked out at 2.28 ± 0.151 log2 fold change.

B27: consensus (structured_RNA)
RNA: B1 RNA with C28U, C30U, C35U
As for B27, the binding signal turned out to be 0.724 ± 0.177 log2 fold change.

B28: consensus (structured_RNA)
RNA: B1 RNA with C28U, G39A
For the molecule B28, the binding signal was 3.59 ± 0.127 log2 fold change.

B29: consensus (structured_RNA)
RNA: B1 RNA with C30U, C35G
For the molecule B29, the binding signal was found to be 1.42 ± 0.169 log2 fold change.

B30: consensus (structured_RNA)
RNA: B1 RNA with C28U, C30U
Take B30: the binding signal turned out to be 1.25 ± 0.15 log2 fold change.

B31: consensus (structured_RNA)
RNA: B1 RNA with C30U, C35A
Turning to B31, the binding signal was determined as 2.24 ± 0.139 log2 fold change.

B32: consensus (structured_RNA)
RNA: B1 RNA with C30U, U33C, C35A
Turning to B32, the binding signal came to 2.22 ± 0.143 log2 fold change.

B33: consensus (structured_RNA)
RNA: B1 RNA with C28U, C29U, C30U, U33C, C35A, G38A, G39A
Turning to B33, the binding signal worked out at 0.796 ± 0.151 log2 fold change.

B34: consensus (structured_RNA)
RNA: B1 RNA with C28U, C29U, C30U, G38A, G39A
As for B34, the binding signal turned out to be 0.928 ± 0.165 log2 fold change.

B35: consensus (structured_RNA)
RNA: B1 RNA with C30U, U33C, C35U, G37A
Consider B35, for which the binding signal stood at 3.55 ± 0.131 log2 fold change.

B36: consensus (structured_RNA)
RNA: B1 RNA with C29U, C30U
With B36, the binding signal was 1.99 ± 0.171 log2 fold change.

B37: consensus (structured_RNA)
RNA: B1 RNA with C29U, C30U, U33C, C35A, G38A
Consider B37, for which the binding signal is 1.33 ± 0.16 log2 fold change.

B38: consensus (structured_RNA)
RNA: B1 RNA with C30U, U33C, C35U
B38: the binding signal was found to be 1.28 ± 0.157 log2 fold change.

B39: consensus (structured_RNA)
RNA: B1 RNA with C28U, C29U, C35U
In the case of B39, the binding signal was 2.15 ± 0.148 log2 fold change.

B40: consensus (structured_RNA)
RNA: B1 RNA with C28U, C29U, C30U, C35G, G37A, G38A
On to B40, for which the binding signal was 1.56 ± 0.147 log2 fold change.

B41: consensus (structured_RNA)
RNA: B1 RNA with C30U, U33C, G37A
Turning to B41, the binding signal turned out to be 3.84 ± 0.117 log2 fold change.

B42: consensus (structured_RNA)
RNA: B1 RNA with C28U, C30U, U33C, C35U, G39A
For B42, the binding signal is 0.816 ± 0.166 log2 fold change.

B43: consensus (structured_RNA)
RNA: B1 RNA with C28U, C30U, C35A, G39A
As for B43, the binding signal came out at 1.91 ± 0.158 log2 fold change.

B44: consensus (structured_RNA)
RNA: B1 RNA with C30U, C35U, G37A
For the molecule B44, the binding signal is 3.59 ± 0.129 log2 fold change.

B45: consensus (structured_RNA)
RNA: B1 RNA with C28U, C30U, U33C
B45: the binding signal amounted to 0.935 ± 0.161 log2 fold change.

B46: consensus (structured_RNA)
RNA: B1 RNA with C28U, C30U, C35U, G39A
Turning to B46, the binding signal stood at 0.994 ± 0.148 log2 fold change.

B47: consensus (structured_RNA)
RNA: B1 RNA with C28U, C29U, C30U, C35A, G38A, G39A
Consider B47, for which the binding signal is 0.759 ± 0.157 log2 fold change.

B48: consensus (structured_RNA)
RNA: B1 RNA with C29U
As for B48, the binding signal came out at 3.57 ± 0.122 log2 fold change.

B49: consensus (structured_RNA)
RNA: B1 RNA with C29U, C30U, C35A
B49: the binding signal came to 1.95 ± 0.161 log2 fold change.

B50: consensus (structured_RNA)
RNA: B1 RNA with C28U, U33C, C35G
Turning to B50, the binding signal amounted to 2.11 ± 0.151 log2 fold change.

B51: consensus (structured_RNA)
RNA: B1 RNA with C28U, C29U, C30U, U33C, C35U, G37A, G38A
Consider B51, for which the binding signal turned out to be 1.97 ± 0.127 log2 fold change.

B52: consensus (structured_RNA)
RNA: B1 RNA with C28U, C29U, U33C, C35U, G38A
Regarding B52, the binding signal was 2.28 ± 0.146 log2 fold change.

B53: consensus (structured_RNA)
RNA: B1 RNA with C30U, U33C
Regarding B53, the binding signal is 1.93 ± 0.129 log2 fold change.

B54: consensus (structured_RNA)
RNA: B1 RNA with C28U, C30U, U33C, G39A
With B54, the binding signal amounted to 1.31 ± 0.141 log2 fold change.
